B1: Cdc20_(1-163) (Cdc20^N) (domain or fragment, human, UniProt Q12834 1-163, looked up)
chain: MAQFAFESDLHSLLQLDAPIPNAPPARWQRKAKEAAGPAPSPMRAANRSHSAGRTPGRTPGKSSSKVQTTPSKPGGDRYIPHRSAAQMEVASFLLSKENQPENSQTPTKKEHQKAWALNLNGFDVEEAKILRLSGKPQNAPEGYQNRLKVLYSQKATPGSSRK
B2: GST-Cdc20^N (domain or fragment, human, UniProt Q12834 1-163, looked up)
chain: B1 chain
B3: GST-Cdc20_(166-499) (GST-Cdc20^C) (domain or fragment, human, UniProt Q12834 166-499, looked up)
chain: RYIPSLPDRILDAPEIRNDYYLNLVDWSSGNVLAVALDNSVYLWSASSGDILQLLQMEQPGEYISSVAWIKEGNYLAVGTSSAEVQLWDVQQQKRLRNMTSHSARVGSLSWNSYILSSGSRSGHIHHHDVRVAEHHVATLSGHSQEVCGLRWAPDGRHLASGGNDNLVNVWPSAPGEGGWVPLQTFTQHQGAVKAVAWCPWQSNVLATGGGTSDRHIRIWNVCSGACLSAVDAHSQVCSILWSPHYKELISGHGFAQNQLVIWKYPTMAKVAELKGHTSRVLSLTMSPDGATVASAAADETLRLWRCFELDPARRREREKASAAKSSLIHQGIR
B4: Cdc20^C (Cdc20_(166-499), free in solution) (domain or fragment, human, UniProt Q12834 166-499, looked up)
chain: B3 chain
B5: BubR1_(1-477) (BubR1^N) (domain or fragment, human, UniProt O60566 1-477, looked up)
chain: MAAVKKEGGALSEAMSLEGDEWELSKENVQPLRQGRIMSTLQGALAQESACNNTLQQQKRAFEYEIRFYTGNDPLDVWDRYISWTEQNYPQGGKESNMSTLLERAVEALQGEKRYYSDPRFLNLWLKLGRLCNEPLDMYSYLHNQGIGVSLAQFYISWAEEYEARENFRKADAIFQEGIQQKAEPLERLQSQHRQFQARVSRQTLLALEKEEEEEVFESSVPQRSTLAELKSKGKKTARAPIIRVGGALKAPSQNRGLQNPFPQQMQNNSRITVFDENADEASTAELSKPTVQPWIAPPMPRAKENELQAGPWNTGRSLEHRPRGNTASLIAVPAVLPSFTPYVEETARQPVMTPCKIEPSINHILSTRKPGKEEGDPLQRVQSHQQASEEKKEKMMYCKEKIYAGVGEFSFEEIRAEVFRKKLKEQREAELLTSAEKRAEMQKQIEEMEKKLKEIQTTQQERTGDQQEETMPTKET

Experiments:
Assay in all cases: pull-down
[1] = target: B3
[2] = target: B4
[3] = target: BubR1_(1-363) (human, UniProt O60566 1-363)
[4] = target: GST-BubR1^N (human, UniProt O60566 1-477)
[5] = target: Cdc20 (full length, Cdc20^FL) (human, UniProt Q12834 1-499)

Binder: B1
- binding result [1]: binds

Binder: B2
- binding result [2]: binds

Binder: B3
- binding result [3]: binds

Binder: B4
- binding result [4]: binds

Binder: B5
- fold increase of association with Mad2 against without Mad2 [5]: ~6 fold
